We go through 29 molecules from patent US20110294728A1, “Antiviral Polypeptides” (priority 2008, published 2011).

In general, Ki refers to the dissociation constant of the complex between target and ligand, obtained from inhibition or displacement. The Kd is the free concentration of one partner at which half of the binding sites on the other are occupied at equilibrium, for simple one-to-one binding. Higher therefore signals weaker binding. The EC50 is the concentration that produces a half-maximal response. A higher EC50 goes with a less potent agent.

The target of assay [1] is T1, HIV-1 reverse transcriptase, heterodimeric p66/p51 (HIV-1), P03366. The assay is described as follows: RT polymerase inhibition assay.
Assay [2] deals with HIV-1 integrase (HIV-1). The assay is described as follows: steady state fluorescence and anisotropy.
In assay [3] the target is HIV-1 integrase (HIV-1). The assay is described as follows: IN 3′ processing inhibition, fluorescence anisotropy. (Polarisation of emitted light reports the rotation of a fluorescent probe.)
In assay [4] the target is T1, HIV-1 reverse transcriptase, …. In words: RT polymerase inhibition assay, Ki from Dixon plot.
For assay [5], the target named is HIV-1 integrase (HIV-1). The assay is described as follows: cell-based or functional assay.
Assay [6] addresses T1, HIV-1 reverse transcriptase, …. In words: RT polymerase inhibition assay, Ki.
The target of assay [7] is HIV-1 integrase (HIV-1). In words: dissociation of the IN/LEDGF complex, AlphaScreen and immunoprecipitation; partner displaced: LEDGF. (In Alpha technology, singlet oxygen from a donor bead excites a nearby acceptor bead.)
Assay [8] has as its target HA-tagged Integrase (stably expressed in HeLa cells) (HIV-1). The assay is described as follows: cell-based or functional assay.
The target of assay [9] is T2, RT:p/t (HIV-1 RT heterodimer pre-bound to DNA/DNA primer/template) (HIV-1), P03366. In words: steady-state fluorescence titration, 20 nM RT:FAM-p/t titrated with PAW.
For assay [10], the target named is T2, RT:p/t (HIV-1 RT heterodimer pre-bound …). In words: steady-state fluorescence titration.
For assay [11], the target named is T1, HIV-1 reverse transcriptase, …. The assay is described as follows: steady-state fluorescence titration, 200 nM FITC-PAW titrated with RT.
Assay [12] has as its target T2, RT:p/t (HIV-1 RT heterodimer pre-bound …). In words: steady-state fluorescence titration, 200 nM FITC-PAW titrated with RT:p/t.
Assay [13] concerns the target HIV-1 integrase (HIV-1). In words: steady-state fluorescence anisotropy, fluorescein-labelled peptide titrated with IN.

Where no end group is shown, it is not given here. Some results are limits rather than exact numbers.

B1: PAW-C1 (peptide)
peptide: CGTKWLTEWIPLTAEAEC
modifications: not checked
As for B1, the inhibition constant Ki in assay [1] was determined as 0.2 µM; with HIV-1 integrase (HIV-1) [3], 21 µM. In the assay with HIV-1 integrase (HIV-1) [2], this molecule showed a Kd of 0.29 µM.

B2: Pscramble (peptide)
peptide: GAKTETLVIPETELEA
modifications: not checked
Take B2: the Ki in [4] worked out at 61 µM.

B3: P19 (peptide)
peptide: GTKAATEVIPLT
modifications: not checked
As for B3, the Ki in assay [4] turned out to be 49 µM.

B4: P2 (peptide)
peptide: ATKALTEVIPLTEEAE
modifications: not checked
On to B4, for which the inhibitory constant (Ki) in assay [4] was 28 µM. This Ki is about 1.8-fold lower than that of the molecule before.

B5: P6 (peptide)
peptide: GTKAATEVIPLTEEAE
modifications: not checked
B5 returned a Ki in assay [4] of 5.7 µM.

B6: P13 (peptide)
peptide: GTKALTEVIPLAEEAE
modifications: not checked
As for B6, in assay [4], the Ki was 10.2 µM.

B7: P27C1 (peptide)
peptide: CGTKWLTEWIPLTAEC
modifications: not checked
In the case of B7, the Ki in assay [1] is 0.042 µM; with HIV-1 integrase (HIV-1) [3], over 100 µM.

B8: P26 (peptide)
peptide: KWLTEWIPLTAEAE
modifications: not checked
In the assay with HIV-1 integrase (HIV-1) [5], B8 had an EC50 (µM) 3′processing of 28 µM, an EC50 (µM) IN/DNA binding of 54 µM and an EC50 (µM) IN/DNA dissociation of 67 µM. Also, the fold reduction in efficiency against PAW in assay [6] stood at 2.5 fold. The Kd with HIV-1 integrase (HIV-1) [2] came to 0.32 µM. Besides, in assay [4], the Ki was found to be 1.8 µM. In the assay with HIV-1 integrase (HIV-1) [7], the EC50 is over 50 µM.

B9: Pep-A (peptide)
peptide: RGTKALTEVIPLTEEAE
modifications: not checked
Take B9: the Ki in assay [4] worked out at 35 µM.

B10: PAW (peptide)
peptide: GTKWLTEWIPLTAEAE
modifications: not checked
In the case of B10, in [8], the IN half-life (cycloheximide treatment, 1 µM PAW) was 17 min and the integrase located in the nucleus (High Content Screening, HeLa cells) was determined as 35%. In addition, in the assay with HIV-1 integrase (HIV-1) [5], the EC50 (µM) 3′processing was found to be 12 µM, the EC50 (µM) IN/DNA binding amounted to 10 µM, the EC50 (µM) IN/DNA dissociation is 15 µM and the IC50 3′-proc is 12.7 µM. Moreover, the Ki in assay [1] worked out at 0.7 µM. In assay [6], this molecule yielded a fold improvement in efficiency over P6 of 10 fold and a fold improvement in efficiency over Pep-A of 50 fold. For the same molecule, the Kd with HIV-1 integrase (HIV-1) [2] was determined as 0.23 µM. This molecule also came in with an inhibition constant (Ki) in assay [4] of 0.7 µM. Further, in the assay with HIV-1 integrase (HIV-1) [3], the Ki was 12 µM. Besides, in assay [9], the dissociation constant Kd was found to be 0.04 µM and the quenching of fluorescence of FAM-labelled p/t was determined as 39%. The 50% effective concentration (EC50) with HIV-1 integrase (HIV-1) [7] turned out to be 2 µM.

B11: P16 (peptide)
peptide: GTKWLTEVWPL
modifications: not checked
In the assay with HIV-1 integrase (HIV-1) [5], B11 returned an EC50 (µM) 3′processing of 10 µM, an EC50 (µM) IN/DNA binding of 8 µM and an EC50 (µM) IN/DNA dissociation of 11 µM. The Ki in [1] came out at 14.4 µM. In [6], this molecule returned a fold reduction in efficiency against PAW of 20 fold. In the assay with HIV-1 integrase (HIV-1) [2], this molecule came in with a dissociation constant (Kd) of 0.12 µM. The molecule further showed a Ki in assay [4] of 14 µM. In addition, in the assay with HIV-1 integrase (HIV-1) [3], the Ki was determined as 10 µM. Moreover, the EC50 in the assay with HIV-1 integrase (HIV-1) [7] turned out to be 0.8 µM.

B12: P5 (peptide)
peptide: GTKGLTEVIPLTEEAE
modifications: not checked
In the case of B12, the fold reduction in potency against P1 in assay [6] amounted to 2.7 fold. In assay [4], the Ki was determined as 20 µM.

B13: P12 (peptide)
peptide: GTKALTEVIPATEEAE
modifications: not checked
In [4], B13 came in with a Ki of 22 µM.

B14: P7 (peptide)
peptide: GTKALAEVIPLTEEAE
modifications: not checked
For B14, the fold reduction in potency against P1 in assay [6] was 2 fold. Moreover, the Ki in assay [4] was 13.5 µM.

B15: P11 (peptide)
peptide: GTKALTEVIALTEEAE
modifications: not checked
For the molecule B15, the Ki in assay [4] came to 7 µM. This counts as single-digit micromolar.

B16: P8 (peptide)
peptide: GTKALTAVIPLTEEAE
modifications: not checked
Regarding B16, the fold reduction in efficiency against P1 in [6] was found to be 8 fold. Besides, the Ki in assay [4] was determined as 57 µM.

B17: P4 (peptide)
peptide: GTAALTEVIPLTEEAE
modifications: not checked
Turning to B17, the fold reduction in potency against P1 in assay [6] is 2 fold. The molecule also yielded a Ki in [4] of 15 µM.

B18: P10 (peptide)
peptide: GTKALTEVAPLTEEAE
modifications: not checked
The molecule B18 returned a Ki in assay [4] of 7.3 µM. In other words, the single-digit micromolar range.

B19: P29 (peptide)
peptide: KWLTEWIPLTAE
modifications: not checked
For the molecule B19, the Ki in assay [4] amounted to 1 µM. This Ki is about 7.3-fold lower than that of the molecule before.

B20: PAW-C2 (peptide)
peptide: GCKWLTEWIPLTAEAEC
modifications: not checked
On to B20, for which the Ki is 1.4 µM in assay [1] and 8 µM in the assay with HIV-1 integrase (HIV-1) [3]. Also, the Kd in the assay with HIV-1 integrase (HIV-1) [2] is 0.12 µM.

B21: P18 (peptide)
peptide: GTKALTEVIPLT
modifications: not checked
In [4], B21 displayed a Ki of 53 µM.

B22: P28 (peptide)
peptide: GTKWATEWAPLTAEAE
modifications: not checked
Regarding B22, the Ki in assay [4] was determined as 2 µM.

B23: P9 (peptide)
peptide: GTKALTEAIPLTEEAE
modifications: not checked
B23: the fold reduction in potency against P1 in [6] was determined as 2 fold. Besides, the Ki in assay [4] is 15 µM.

B24: P16C1 (peptide)
peptide: CGTKWLTEVWPLC
modifications: not checked
For B24, the inhibition constant (Ki) in assay [1] is 32.1 µM; in the assay with HIV-1 integrase (HIV-1) [3], 4.3 µM. Also, the Kd with HIV-1 integrase (HIV-1) [2] turned out to be 0.09 µM.

B25: P24 (peptide)
peptide: GTKWLTEWIPL
modifications: not checked
In the assay with HIV-1 integrase (HIV-1) [5], B25 gave an EC50 (µM) 3′processing of 33 µM, an EC50 (µM) IN/DNA binding of 35 µM and an EC50 (µM) IN/DNA dissociation of 21 µM. In the assay with HIV-1 integrase (HIV-1) [2], this molecule registered an equilibrium dissociation constant (Kd) of 0.35 µM. In addition, the inhibition constant (Ki) in assay [4] was determined as 0.7 µM. Besides, in the assay with HIV-1 integrase (HIV-1) [7], the EC50 amounted to 13 µM.

B26: P17 (peptide)
peptide: GTKAWTEVWPL
modifications: not checked
B26 returned a fold reduction in efficiency against PAW in assay [6] of 50 fold. Besides, in assay [4], the Ki came to 35 µM.

B27: P1 (peptide)
peptide: GTKALTEVIPLTEEAE
modifications: not checked
The molecule B27 showed a fold increase in potency against Pep-A in assay [6] of 5 fold. The Ki in [4] was 7.5 µM.

B28: PAW-FITC (peptide)
peptide: GTKWLTEWIPLTAEAEC
modifications: not fully specified
B28 came in with an IC50 3′-proc (gel electrophoresis) with HIV-1 integrase (HIV-1) [5] of 10 µM. In addition, the fold greater Ki than PAW in assay [6] turned out to be 3.8 fold. In [10], this molecule gave a fold increase in affinity against RT without p/t of 5 fold and a fold lower Kd than unlabelled PAW of 5.6 fold. The molecule also came in with a Ki in assay [4] of 2.7 µM. In [11], this molecule registered a Kd of 0.033 µM and a quenching of FITC-PAW fluorescence of 39%. Further, in assay [12], the Kd amounted to 0.0071 µM and the quenching of FITC-PAW fluorescence was 57%. In the assay with HIV-1 integrase (HIV-1) [13], this molecule displayed a Kd of 0.4 µM and a Δr (change of steady-state anisotropy) of 0.06.

B29: P27 (peptide)
peptide: GTKWLTEWIPLTAE
modifications: not checked
Regarding B29, in the assay with HIV-1 integrase (HIV-1) [5], the EC50 (µM) 3′processing is over 100 µM, the EC50 (µM) IN/DNA binding was over 100 µM and the EC50 (µM) IN/DNA dissociation was over 100 µM. Moreover, the Ki in assay [1] came to 0.05 µM. The fold increase in efficiency against PAW in [6] stood at 14 fold. Moreover, the Kd with HIV-1 integrase (HIV-1) [2] was over 100 µM. This molecule also showed a Ki in assay [4] of 0.05 µM. Moreover, the inhibition constant (Ki) with HIV-1 integrase (HIV-1) [3] is over 100 µM.
